We go through eleven sequences from the DeepSol protein solubility set.

This series can be described thus: soluble on expression in E. coli; label from the status in PepcDB or PDB records.
As to “GTKMEPMEYLVVDVPSEFQGAIIEKMGPRKGEMTSLQPMGETVRLEFVVPARGLIGLRGELLTETRGTAVMTHTFHDYAPYKGDIPGRKNGVLIAMELGETTAYALDALQPRGILFIGPGVEVYGGMI”, the “soluble on expression in E. coli” value is listed as “not soluble”. To “GVLPVEKCNLEDSACMTSAFQQALPTFVAGLPDHGVEVMDVLDLDDFAFDLSGLQFTLKEGKLKGLKGAVIDNVKWDLKKKNIEVDFHLDATVKGHYTAGGRILILPITGDGQMKLKLKNIHIHLVVSYEMEKDAEGVDHVIFKKYTVTFDVKDNAQFGLTNLFNGNKELSDTMLTFLNQNWKQVSEEFGKPVMEAAAKKIFKNIKHFLAKVPIAEIANV” belongs “soluble”; to “GVRNLAQGPRGCEHYDRACLLKAPCCDKLYTCRLCHDTNEDHQLDRFKVKEVQCINCEKLQHAQQTCEDCSTLFGEYYCSICHLFDKDKRQYHCESCGICRIGPKEDFFHCLKCNLCLTTNLRGKHKCIE”, “soluble”. In the case of “GVSETAPASRRGELAVCDAVSGWVTDRRTAVDLRGREVEVLGEVPAAGGSPLRQYFFETRCKADNAEEGGPGAGGGGCRGVDRRHWVSECKAKQSYVRALTADAQGRVGWRWIRIDTACVCTLLSRTGRA”, the “soluble on expression in E. coli” value was “soluble”. The same measure for “GVTKEIRIPTLEECDVCHGSGAKPGTQPQTCPTCHGSGQVQMRQGFFAVQQTCPHCQGRGTLIKDPCNKCHGHGRVERS”: “soluble”; for “GVVIREALSSSNAVPAIDFDRKELIDIPAYQGPGKNVVRPPVDLDPSYNPFKETGLTEPIRSSRRQSPDMGWNELFKQFEAKRDAEKMAEPPIRSEELFASTDFTPSAVSATPSTDMLCYVHRGRYLVTTLSRGLALVDFHRAHKRILYDRFMADESRRHIEQQQLLFPELLEFNPSDASAVKAAVDELQSVGFDLSPLGVSSYSLLAAPVQIIDCAADVVRDVIHTTLEDGRSSHEQMLELIATQIAEYQAIPCGKTPTAEEASDLLAELFASNDSTYTPDGKLIVSIIEEADIARRFE”: “not soluble”.

Consider “GWQAFKNDATEIIPELGEYPEPPPELENNKTMNRAENGGRPPHHPFETKDVSEYSCRELHFTRYVTDGPCRSAKPVTELVCSGQCGPARLLPNAIGRGKWWRPSGPDFRCIPDRYRAQRVQLLCPGGEAPRARKVRLVASCKCKRLTRFHNQSELKDFGTEAARPQKGRKPRPRARSAKANQAELENAY”, for which the “soluble on expression in E. coli” value was “soluble”. The same measure for “HFVKSVEDKAISVTLAQGNIEQNLKWDPNYFYSTLAIYQKLITENLGKTDLIILPESALPTLENAITPFFEGLERAAKETKTEIMVGTVFQDTKSGKLLNSIMTAGNPDFPYQPNTQNRYNKHHLVPFGEYVPLESILRPLNSVFNLPMSAFQSGEAVQPSLIAKKRAFSPAICYEIIFGEQVRQNLKQDTDYLLTLSNDAWFGDSIGPWQHLQMARMRALELGKPLIRATNTGISVFVDAQGKVLAQAPQFIETTLTYKIAPAEGKTPYSVLGNMPLYALSLLFLLLHS”: “not soluble”; for “HGPAPLDLDKYVEIARLCKYLPENDLKRLCDYVCDLLLEESNVQPVSTPVTVCGDIHGQFYDLCELFRTGGQVPDTNYIFMGDFVDRGYYSLETFTYLLALKAKWPDRITLLRGNHESRQITQVYGFYDECQTKYGNANAWRYCTKVFDMLTVAALIDEQILCVHGGLSPDIKTLDQIRTIERNQEIPHKGAFCDLVWSDPEDVDTWAISPRGAGWLFGAKVTNEFVHINNLKLICRAHQLVHEGYKFMFDEKLVTVWSAPNYCYRCGNIASIMVFKDVNTREPKLFRAVPDSVRASSPSPL”: “soluble”; for “HISSQQHEKAIKSYFDEAQTQGVIIIKEGKNLSTYGNALARANKEYVPASTFKMLNALIGLENHKATTNEIFKWDGKKRTYPMWEKDMTLGEAMALSAVPVYQELARRTGLELMQKEVKRVNFGNTNIGTQVDNFWLVGPLKITPVQEVNFADDLAHNRLPFKLETQEEVKKMLLIKEVNGSKIYAKSGWGMGVTPQVGWLTGWVEQANGKKIPFSLNLEMKEGMSGSIRNEITYKSLENLGII”: “soluble”. Take “HRCVALCIETRPDYCGEKEINQMLKLGATRVELGVQTIYNEILEFCKRGHTVEDTIKATQLLKDSGLKVSYHLMPGMPGSDMEMDKKMFKEIFENPDFKPDMVKIYPCLVIEGTELYEMWKRGEYKPYREEEAIEIISYAKSIMPKWV”: the “soluble on expression in E. coli” value is recorded as “not soluble”.
